Assay results: the DeepSol protein solubility set

experiment: soluble on expression in E. coli; label from the status in PepcDB or PDB records

Soluble on expression in E. coli, soluble:
MSLRVTLTDVARAAGVSKSTVSLVLNDSSLIKKETQQKVQQAIEQLGYVYNRFAANLRSQKSLTIGVVIDDLINPFFAEFTMGLEMTLAEHGFITVMSNTSQRSDRQKQVLDTLLEHHVAGIVLCPVNSTSEADLQRYANSSTPLLITMRPLDWQQLPVDYVGVDSHAGVREATEYLIQQGHRDIVFIGGLTHHMRYQGYLEAMNHHGLQPWSTDAFSLRAEPTQANGYQLMQQLLDMPSPPTAVICYNDLMAFGAESALGERGLFAGEDISLIGNDGVAACAYSNPPLTTIAVEPLALGKQAAQQILRRIAQPDAPLSHYIYRPTLQIRASTGKEGHHHHHH, MSLTTFIQLHLLTAYPAANLNRDDTGAPKTVVLGGATRLRVSSQSLKRAWRTSALFEQALAGHIGIRSGRIAREAATILIEKGIEEKKAIEWAAKIADYLGKAKNDKKPKDPLTNAETEQLVHISPAEFDAVKALAHQLAEEKRAPKEEDLALLRKDRMAVDIAMFGRMLANKPEFNVEAACQVAHAFGVSETIVEDDFFTAVDDLRQASEDAGAGHLGETGFGSALFYTYICIDKDLLVENLGGDEALANQTLRAFTEAALKVSPTGKQNSFASRAYASWALAEKGTEQPRSLAAAFYEPINGTRQLDVAVQRITTLRENMNTVYEQKTECASFDVMNKQGSMKDVLDFICAEGHHHHHH, MNSEIELPVQKQLEAYNARDIDAFMAWWADDCQYYAFPATLLAGNAAEIRVRHIERFKEPDLYGELLTRVIVGNVVIDHETVTRNFPEGKGEVDVACIYEVENGRIAKAWFKIGEPRIVSQKS, MEPKLSKDTIIAAAFSLLEKSPTLEQLSMRKVAKQLGVQAPAIYWYFKNKQALLQSMAEAIEEHFQEPALCGEWYSDLLAFMENYYDLYQQFPCAVAIEIQTVPAYPQRLRHLNQMMGILREAGFSPEMTHLAVTSLQHLLFGMIMDATEEKQLVSQVLNGDDYLKEQVLHMKQYVSDNELTYMEESIQFRHSIHQKSAFIQAVKTYLDGLQADNTSSSK, GDTKEQRILNHVLQHAEPGNAQSVLEAIDTYCEQKEWAMNVGDKKGKIVDAVIQEHQPSVLLELGAYCGYSAVRMARLLSPGARLITIEINPDCAAITQRMVDFAGMKDKVTLVVGASQDIIPQLKKKYDVDTLDMVFLDHWKDRYLPDTLLLEECGLLRKGTVLLADNVICPGAPDFLAHVRGSSCFECTHYQSFLEYREVVDGLEKAIYKGP, MSLRKLLKKTLFSNIIILCLYLGILKCVNSHISNEIQKQNQTFDKENLESKNTQNLQKSKNPTSQLSKTILKEEFNFLPNDVEINWKGRVLVIGDIHGDLKSLITSLFLSGVINSNLDWIAKNTLLIQLGDVVDRGSHALQIYKLFNKLKSQAPSLGSKFVGLLGNHEVMNLCGQLHYVTDEDFQTYGGRDNRTFEWSKEGFVGKYLRTMKLAIRVNDSLYVHAGLLPKYAKLGLDKLDKLSNDLLEGDFCDFYSSLFFVEDGPLWTRDISLGEEEKACKLVDETLQILGLSRMVVGHTIQHDNRINIKCDNKLILADTGFSEAIYGKPCMLEILYHNDNPDPSNYKSFHPYSINELQVKSNPSKPNIKYIQVTSLFLDKTSTRDEGHHHHHH, GMIGDGIENSPLLTDLAFPYRLLGAGKESRECLFLLHGSGVDETTLVPLARRIAPTATLVAARGRIPQEDGFRWFERIDPTRFEQKSILAETAAFAAFTNEAAKRHGLNLDHATFLGYSNGANLVSSLMLLHPGIVRLAALLRPMPVLDHVPATDLAGIRTLIIAGAADETYGPFVPALVTLLSRHGAEVDARIIPSGHDIGDPDAAIVRQWLAGPIAIAQAD

Soluble on expression in E. coli, not soluble:
MTESFAQLFEEFLNETQFQQGTIVKGTVVAIENGYVLVDAGLKSESAIPAEQFKNAAGELEVQVGSQVDVALDAVEDGFGETQLSREKAKRHEAWIVLEKAYEEAATVIGIINGKVKGGFTVELNGIRAFLPGSLVDVRPIRDTAHLENKELEFKVIKLDQKRNNVVVSRRAVIESESSVERDELLETLQEGTEVKGIVKNLTDYGAFVDLGGVDGLLHITDMAWKRVKHPSEIVNVGDEILVKVLKFDRDRTRVSLGLKQLGEDPWVAIAKRYPEGHKLSGRVTNLTDYGCFVEIEEGVEGLVHVSEMDWTNKNIHPSKVVNVGDEVEVMVLDIDEERRRISLGLKQCKANPWQSFAEAQAKGDKVTGKIKSITDFGIFIGLEGGIDGLVHLSDISWNVPGEEAVREFKKGDEISAVVLAVDAERERISLGIKQMENDPFNAYVSDNKKGALVNGTVTAVDAKGATIELEDGVEGYIRASEVSRDRIEDASLILNVGDKVEAKFTGVDRKNRVINLSIKAKDEAEEQEVMATLNKQDEAAFGNAMADAFKAAKGELEHHHHHH, MTDQPISLEEIRLRLNELDDQLLSLLSERRKLSIEVAKSKVQTSKPVRDAVREQQLLVKLISNGRDKYELDAQYITKLFHTIIEDSVLLQQGYLQNLVNPQQSRKPLARVAFLGAKGSYSHLASREYFSRKNTELIELNCEHFKEVTRTVESGHADYGVLPIENTSSGSINEVYDLLQHTTLYIVGELTQPIEHCLVATKDIRLEDIKTLYSHPQPHQQCSEFLSRMKGVKLESCASTADAMQKVQEMNRDDVAAIGNASSGKLYGLQAIQGNIANQTENHTRFIVVARKPVEVSTQIPAKTTLIMSTSQEAGSLVETLLVLQRYGINMTKLESRPIMGNPWEEMFYVDLEAHLGSTEMQQALQELTKITKHLKVLGCYPSENIKPTQVKLS, MGSDKIHHHHHHMEKLQESMYQLIVETSTNLPNDVRRAIAEAKAKENAGTRAALSLSTITENIKMADENISPICQDTGMPTFEIKVPVGVNQIEMKKAIYAAIEQATKDGKLRPNSVDSLTGKNSGNNLGEGTPVIHFEQWEEDYIDARLILKGGGCENKNIQYSLPAELEGLGRAGRDLDGIRKCIMHSVYQAQGQGCSAGFIGVGIGGDRTTSYSLAKEQLFRKVDDVNPNDDLRKLEEYVLENANKLGIGTMGFGGEATLLGCKVGAMNRLPASFFVSVAYNCWAFRRLGVELDAETGEIKKWLYKDGERVDLNEVASQVAATAETTEVREVVLEAPVTEEQIRELKVGDVVIINGMLHTGRDAIHHHLMDHDAPIDLDGQIIYHCGPVMLQDDAGEWHVKAAGPTTSIREEPYQGDIMKKFGIRAVIGKGGMGPKTLKALQEHGGVYLNAIGGAAQYYADCIKKVKGVDLMEFGIPEAMWHLEVEGFAAIVTMDSHGNSLHEDVDKSSLEKLEQFAEKVF, MGSDKIHHHHHHMPRIKDGFKGERAIVLPAFLIEELKQDPLGSELYITDIGYYPHAYFHYRKRDTEEVTEFILIYCMEGEGWFELDKHQYAVTANQFFILPEHQAHAYGSNEENPWTIYWIHFNGTKAAFFSAGFDRPKSITPQEDSRIKERLVLFEEIYSSISFGYSKNYMLYATTSLFHFLGSMKFIGEYRDCGSMRNSYRNKDVVQIAIHFMQENLSKTIRLADIAAEVNLSVSYFSNLFEEKTGSSPLRYLTYLRIQEACHYLDFTNLKINQISPLVGYEDSLYFSRLFTKTMGVPPSAYKEKKKG, MGSSHHHHHHGKTIFVIVPTNEEQVAFLEALAKQDELNFDWQNPPTEPGQPVVILIPSDMVEWFLEMLKAKGIPFTVYVEEGGSENLYFQGGGGGGGSEVEASPRVAMIVLEGFSGTVFHALMESGVHMPNIAHMLSSQKGVWAECATSSQSSCARAVVVENDTSGEVYVSAAAAMTSLFSGVSPREHQVYNGSLESMSMYANTSKMNPSIAKRVKDAGMKVSVVGTSHAINSLSIALGSCSRPGVLDMECAASREELLRASVDEYSGSVQLDCLASSSCNMDTRKMTSPTDPQQCSSGQAEAQFTRHLNSIFGGLAYSTQTQEAAMQNTVADNLDNSLFVFHFDALAVRAASTYLPDFQYNASSKEYVAQVYLLDALVGQVISYVRDRARSQKENWLIVGVSNHGGDDKPYAIPNPVSTSENTIAFFMATYTNNMKRFVTLAPLQRPVTQLDVLPTVLTWLNVVPFDAETSAVTAGTNTTAASPAVEARVMERRHFEGLVQGICSSGASLKNCAL, MGSDKIHHHHHHMTSREDEIRDFLATHGYADWNRTPLAGDASSRRYQRLRSPTGAKAVLMDWSPEEGGDTQPFVDLAQYLRNLDISAPEIYAEEHARGLLLIEDLGDALFTEVINNDPAQEMPLYRAAVDLLIHLHDAQTPELARLDPETLSEMTRLAFSEYRYAILGDAAEDNRKRFEHRFAQILSAQLEGDMVFVHRDFHAQNLLWLPEREGLARVGVIDFQDAKLGHRAYDLVSLLQDARRDVPAQVEAQMIDHYIQATGVDESHFRSAYAVIAVQRNMRILGIFARLSQRFGKRHYIEFVPRVWAHFERGLAHPALASAAEEILNALPAPAPEVLERLRA, MSNIITDYSQYNEKQLHNFLNSIEKQLLKAERDKNKAIKKIQECELQERMIRQVLAQKHSQEKEPTPSLLNTIASKDDPEYDVSFGDFNDFLQIAKQERERHNA, RESLGRDVMVVVDLSGSMAEQDFVSKQSSDLGAVKKISRLEATKEVLADFVKTRKGDRLGLILFGDAAFVQTPFTADQSVWLELLNQTDVAMAGQSTHLGDAIGLAIKVFEQSSEDKASAEENAKPREKVAIVLTDGNDTGSYVEPIDAAKVAAAKDVRIHMIAMGDPRTVGEQALDMNIINRVAKESGGKAFQAINRDELEQAYDEIGELEPQLYE, MDDLASQSFPEPERAIMKATYQVLCEYGYADLTIQQIADEYGKTTTAVHYHCDTKNKLLTAFLDYLLEELADSVHNIRTTNPENRLKFLLDELLVKSKNEPVLSIALLEMQSQTPYKEPFRERFKQMAVVNRQTELDFTVSETA, MSLKKFQHEFWTATSGDLTQRRTPLATPDYQSTSAAAVKIIIDPADRHQPWLGGGAAITDSAAYLLWSVMSAEQRRALLTELFDPDQGGFSSVRVPLGSCDFQSQDFYTYDDVPYGEHDQKLEQFSIGTGQPGAPDATKDLKHIVPVLQEILAINPAVKVIASPWSAPAWMKNTGHLTHGGHLRFGEFTGNGYTEENRFEYIYAQYFIRYIEAYQKLGIPIYGLTIQNEPSNAAHWPAMIWTVPQLADFGYRYLRPALNHSFPDTKLYLLDDSFHALTKPITAEVTPEQAAAFDGLAVHTYSGPYDNLYHANRAYPNWSTIMTERRCMMTDTPEEAAHIMFGIIGNWLVHNGLSMITLWNLALDERGLPNAADSTGREGVVTIDHTTGKVQRNLEYFMLRNFGQDVSVGATVIGSTNYTRDGYTGGLGSVAFLGTAGDIAAHLYNPTAQPIQAAVTINGNGANWQLVTVPPYGTVTLHKSDAPLNTTNVPVDDEFPLNPTPANHSDVAPGQHEGHHHHHH, MGSDKIHHHHHHMQKLGIFIYSLGSGGAERVVATLLPILSLKFEVHLILMNDKISYEIPECQIHFLECSKPSENPILKFLKLPFLALKYKKLCRNLGIDTEFVFLNRPNYIALMARMFGNKTRLVINECTTPSVMYMKNNFNSLVNKFLISLLYPKADLILPNSKGNLEDLVQNFSISPKKCEILYNAIDLENIGQKALEDIALKDKFILSVGRLDKGKNHALLIRAYARLKTDLKLVILGEGVLKDELLALIKELNLEEKVLLLGFDNNPYKYMAKCEFFAFASVFEGFSNVLIESLACSCAVVCTDHKSGARELFGDDEFGLLVEVDNENSMFQGLKTMLEDDKLRKAYKNKAKTRAKAFDKVKIARDALKYLLG, MGHHHHHHSHMPSCVVNPMEHTHAATAALPAAGPVNLPTGISRVPTGYPSDLKPVTWNQHQLAHLQQMCSEASGTPAPGLTGKHAAGRELAGPGFVGKAPAYPQELCLAQSFHLKPPLEKPTPSPPVNGMAAPLAYPNGHYFQPLWNNILPTPNSDSSGSQDLAMPFHGGQPTGAPLDCAAAPGAHYRAGTGGGPVASQNSLMQTVDYLSGDFQQACFREQSLAMLSKAHRAPGNRAPDPTESRSLHIQHPGYR
